Laboratory results as given in article PMC8909805, “Anticancer Activity of (S)-5-Chloro-3-((3,5-dimethylphenyl)sulfonyl)-N-(1-oxo-1-((pyridin-4-ylmethyl)amino)propan-2-yl)-1H-indole-2-carboxamide (RS4690), a New Dishevelled 1 Inhibitor” (Cancers, 2022).

T1: DVL1 binding to FZD4 (Homo sapiens, UniProt O14640)
T1 construct: host or cells: HEK293
T1 sequence (O14640 1-695): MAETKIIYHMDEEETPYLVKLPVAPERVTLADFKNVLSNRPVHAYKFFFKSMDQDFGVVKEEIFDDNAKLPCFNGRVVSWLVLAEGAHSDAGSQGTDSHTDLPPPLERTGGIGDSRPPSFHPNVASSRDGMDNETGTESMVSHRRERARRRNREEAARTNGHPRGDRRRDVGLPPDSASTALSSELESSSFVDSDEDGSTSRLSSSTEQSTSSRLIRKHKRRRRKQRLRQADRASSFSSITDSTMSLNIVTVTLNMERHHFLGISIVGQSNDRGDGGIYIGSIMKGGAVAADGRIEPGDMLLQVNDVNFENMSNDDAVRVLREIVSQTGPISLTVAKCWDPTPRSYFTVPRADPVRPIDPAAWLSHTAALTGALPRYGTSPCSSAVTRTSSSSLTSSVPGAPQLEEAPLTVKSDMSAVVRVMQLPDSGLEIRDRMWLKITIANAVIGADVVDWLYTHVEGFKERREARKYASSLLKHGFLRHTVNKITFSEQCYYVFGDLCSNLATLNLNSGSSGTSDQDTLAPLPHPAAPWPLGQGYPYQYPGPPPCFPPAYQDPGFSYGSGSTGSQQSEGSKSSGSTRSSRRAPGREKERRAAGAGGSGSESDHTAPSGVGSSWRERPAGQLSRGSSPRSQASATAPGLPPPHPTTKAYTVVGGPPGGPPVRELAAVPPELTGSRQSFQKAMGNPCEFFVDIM


Experiments:
DVL1 binding to FZD4 = biological target: T1, DVL1 binding to FZD4; test: Inhibition of DVL1 (DVL-GFP) recruitment by FZD4 at the plasma membrane of HEK293 cells; type: cell-based; conditions: HEK293 cells co-transfected with HA-FZD4 and GFP-DVL-1; 24 h treatment; read-out: EC50 ± SD DVL1 Binding Inhibition
Experimental: HEK293 cells were seeded in 96-well tissue culture plates at a density of 5 × 10 ^3/well. After 16–24 h seeding, cells were co-transfected with HA-FZD4-wt (0.04 µg/well) and GFP-tagged DVL-1 (0.04 µg/well) using PEI (0.25 µL/well) in a final volume of 100 µL/well. After 24 h of transfection, the medium was replaced and supplemented with the indicated compounds diluted in culture medium. After 24 h of treatment, cells were fixed in 3.7% formaldehyde freshly diluted in PBS for 30 min at RT, quenched with 0.1 M glycine/PBS for 30 min at RT, and washed with PBS. Samples were observed under a Leica confocal fluorescent microscope. Inhibition of DVL recruitment was measured by counting the percentage of cells losing GFP-DVL-1 localization on the PM. Experiments were performed in triplicate, and the standard deviations are indicated.
The crucial role played by PDZ domains in the spreading of cellular signals and their aberrant activations in many human diseases makes the PDZ domains very attractive targets for drug discovery. […] To identify new DVL1 inhibitors, we followed a virtual screening approach by fixing as the main filter a pharmacophoric model. We speculated that compound 2, the recently reported inhibitor of NHERF1 PDZ1 domain [26], may be able also to bind the DVL PDZ domain. The activity of compound 2 was assayed in HEK293 cells transiently expressing both HA-tagged-FZD4 (HA-FZD4) and the chimeric construct DVL-GFP. In the absence of HA-FZD4, DVL-GFP is localized in punctate intracellular structures known as signalosomes. In the presence of FZD-4 expression, DVL-GFP is recruited on the PM of the cell showing a drastic change in localization. As previously reported, drugs acting as inhibitors of FZD4/DVL binding reduce the amount of DVL-GFP recruited on the PM. […] Thus, we used the information gained from the binding mode of compound 2 to design a pharmacophore model that would lead to the identification of new DVL1 PDZ binders. At the same time, to better distinguish between the inhibitory activities of DVL1 and NHERF1, we added a new query to the pharmacophore model. Actually, comparing the PDZ structures of the studied proteins, we identified a significant difference. The upper part of the carboxylic binding loop was delimited by Tyr24, Ile79 and Val86 for NHERF1, while we observed Leu12, Val75 and Ile81, respectively, for DVL1. […] This peculiar feature of the DVL1 PDZ was included in our pharmacophore model by adding a hydrophobic query to obtain the required selectivity (Figure S1, Supplementary Materials). […] Thus, for each molecule, we obtained 10 conformations, and all of the proposed binding poses (7000 molecules per 10 conformations) were scored by the fitting to the pharmacophore model. […]

HA-tagged FZD4wt (human) = HA-tagged FZD4wt (human) (UniProt Q9ULV1)
Chain of HA-tagged FZD4wt (human) (Q9ULV1 37-537): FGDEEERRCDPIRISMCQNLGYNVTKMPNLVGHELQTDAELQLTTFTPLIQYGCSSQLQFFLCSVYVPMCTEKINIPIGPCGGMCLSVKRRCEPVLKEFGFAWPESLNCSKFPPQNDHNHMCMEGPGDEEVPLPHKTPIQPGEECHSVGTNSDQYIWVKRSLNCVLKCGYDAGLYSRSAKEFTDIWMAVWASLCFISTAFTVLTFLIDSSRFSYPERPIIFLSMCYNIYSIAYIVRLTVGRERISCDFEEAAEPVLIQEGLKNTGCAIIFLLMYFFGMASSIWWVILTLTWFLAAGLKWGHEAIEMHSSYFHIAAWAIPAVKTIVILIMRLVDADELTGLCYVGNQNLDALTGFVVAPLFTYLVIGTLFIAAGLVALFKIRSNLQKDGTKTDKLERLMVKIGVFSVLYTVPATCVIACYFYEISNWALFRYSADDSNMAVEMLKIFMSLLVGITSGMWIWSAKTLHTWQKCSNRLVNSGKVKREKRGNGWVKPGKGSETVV

EC50 (DVL1 binding to FZD4) | EC50 of the small molecule 2 for inhibition of GFP-DVL-1 recruitment to the plasma membrane by HA-FZD4 in HEK293 cells (percentage of cells losing PM localisation; 'DVL1 Binding Inhibition') (HA-tagged FZD4wt (human)) | EC50 of the small molecule (R)-1 for inhibition of GFP-DVL-1 recruitment to the plasma membrane by HA-FZD4 in HEK293 cells (percentage of cells losing PM localisation; 'DVL1 Binding Inhibition') (HA-tagged FZD4wt (human)) | EC50 of the small molecule (S)-1 for inhibition of GFP-DVL-1 recruitment to the plasma membrane by HA-FZD4 in HEK293 cells (percentage of cells losing PM localisation; 'DVL1 Binding Inhibition') (HA-tagged FZD4wt (human)) | Molecule
5.1 ± 0.09 µM |  |  |  | O=C(Nc1ccc(CO)cc1)c1[nH]c2ccc(Cl)cc2c1Cc1ccccc1 [Compound 2, 3-benzyl-5-chloro-N-(4-(hydroxymethyl)phenyl)-1H-indole-2-carboxamide, reference compound]
 | 5.1 µM | 29.5 µM | 0.49 µM | GFP-tagged DVL-1 (natural protein) MAETKIIYHMDEEETPYLVKLPVAPERVTLADFKNVLSNRPVHAYKFFFKSMDQDFGVVKEEIFDDNAKLPCFNGRVVSWLVLAEGAHSDAGSQGTDSHTDLPPPLERTGGIGDSRPPSFHPNVASSRDGMDNETGTESMVSHRRERARRRNREEAARTNGHPRGDRRRDVGLPPDSASTALSSELESSSFVDSDEDGSTSRLSSSTEQSTSSRLIRKHKRRRRKQRLRQADRASSFSSITDSTMSLNIVTVTLNMERHHFLGISIVGQSNDRGDGGIYIGSIMKGGAVAADGRIEPGDMLLQVNDVNFENMSNDDAVRVLREIVSQTGPISLTVAKCWDPTPRSYFTVPRADPVRPIDPAAWLSHTAALTGALPRYGTSPCSSAVTRTSSSSLTSSVPGAPQLEEAPLTVKSDMSAVVRVMQLPDSGLEIRDRMWLKITIANAVIGADVVDWLYTHVEGFKERREARKYASSLLKHGFLRHTVNKITFSEQCYYVFGDLCSNLATLNLNSGSSGTSDQDTLAPLPHPAAPWPLGQGYPYQYPGPPPCFPPAYQDPGFSYGSGSTGSQQSEGSKSSGSTRSSRRAPGREKERRAAGAGGSGSESDHTAPSGVGSSWRERPAGQLSRGSSPRSQASATAPGLPPPHPTTKAYTVVGGPPGGPPVRELAAVPPELTGSRQSFQKAMGNPCEFFVDIM
